± gives the standard deviation of the averaged measurements.
B1: library; a variant is named by its letters at N, in order (parent)
chain: GAGACCGCAACTGAAAAGTTGTGGNNNNNATAGTGAGTCGCTGCCTGCAAAGACACAACT

Variants of: B1
Experiment: ligation selection enrichment (abundance after / before one-round selection) (fold); higher = more template-directed ligation activity
Conditions: with T7Psub CACGGAUGCUAAUACGACUCACUAUA; MgCl2 25 mM; 42 °C; 4 h; pH 8.5
In short: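 Two independent reactions combined a T7-transcribed RNA ligase library with five randomized core positions (0.75 μM) and RNA substrate (6 μM) in 50 mM EPPS pH 8.5, 25 mM MgCl2, run for 4 h at 42 °C. The ligated products were sequenced on a MiSeq, and only reads with quality ≥30 at all randomized positions were counted. Enrichment is the abundance after ligation divided by the abundance before ligation.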

**Q.** Which ligation selection enrichment does the source give for GAGACCGCAACTGAAAAGTTGTGGTCACTATAGTGAGTCGCTGCCTGCAAAGACACAACT [TCACT] here?
**A.** 0.427 ± 0.28

**Q.** Which ligation selection enrichment does the source give for GAGACCGCAACTGAAAAGTTGTGGTCACAATAGTGAGTCGCTGCCTGCAAAGACACAACT [TCACA] here?
**A.** 0.115 ± 0.057

**Q.** With GAGACCGCAACTGAAAAGTTGTGGTCACGATAGTGAGTCGCTGCCTGCAAAGACACAACT [TCACG] as the variant, how does the ligation selection enrichment read?
**A.** 0.341 ± 0.018

**Q.** Which ligation selection enrichment does the source give for GAGACCGCAACTGAAAAGTTGTGGTCACCATAGTGAGTCGCTGCCTGCAAAGACACAACT [TCACC] here?
**A.** 0.159 ± 0.0071

**Q.** For GAGACCGCAACTGAAAAGTTGTGGACACAATAGTGAGTCGCTGCCTGCAAAGACACAACT [ACACA], which ligation selection enrichment is on record?
**A.** 0.134 ± 0.024

**Q.** How did the ligation selection enrichment turn out when GAGACCGCAACTGAAAAGTTGTGGACACGATAGTGAGTCGCTGCCTGCAAAGACACAACT [ACACG] was run?
**A.** 0.497 ± 0.035

**Q.** GAGACCGCAACTGAAAAGTTGTGGACACTATAGTGAGTCGCTGCCTGCAAAGACACAACT [ACACT] was tested. Which ligation selection enrichment did it give?
**A.** 0.474 ± 0.18

**Q.** GAGACCGCAACTGAAAAGTTGTGGACACCATAGTGAGTCGCTGCCTGCAAAGACACAACT [ACACC] was tested. Which ligation selection enrichment did it give?
**A.** 0.132 ± 0.0051

**Q.** With GAGACCGCAACTGAAAAGTTGTGGGCCAAATAGTGAGTCGCTGCCTGCAAAGACACAACT [GCCAA] as the variant, how does the ligation selection enrichment read?
**A.** 0.222 ± 0.045

**Q.** With GAGACCGCAACTGAAAAGTTGTGGGCCACATAGTGAGTCGCTGCCTGCAAAGACACAACT [GCCAC] as the variant, how does the ligation selection enrichment read?
**A.** 0.176 ± 0.031

**Q.** For GAGACCGCAACTGAAAAGTTGTGGGCCATATAGTGAGTCGCTGCCTGCAAAGACACAACT [GCCAT], which ligation selection enrichment is on record?
**A.** 1.25 ± 0.34

**Q.** GAGACCGCAACTGAAAAGTTGTGGGCCAGATAGTGAGTCGCTGCCTGCAAAGACACAACT [GCCAG] was tested. Which ligation selection enrichment did it give?
**A.** 0.28 ± 0.021

**Q.** GAGACCGCAACTGAAAAGTTGTGGGCACGATAGTGAGTCGCTGCCTGCAAAGACACAACT [GCACG] was tested. Which ligation selection enrichment did it give?
**A.** 0.521 ± 0.053

**Q.** Which ligation selection enrichment does the source give for GAGACCGCAACTGAAAAGTTGTGGGCACAATAGTGAGTCGCTGCCTGCAAAGACACAACT [GCACA] here?
**A.** 0.175 ± 0.0085

**Q.** Which ligation selection enrichment does the source give for GAGACCGCAACTGAAAAGTTGTGGGCACTATAGTGAGTCGCTGCCTGCAAAGACACAACT [GCACT] here?
**A.** 0.555 ± 0.18

**Q.** With GAGACCGCAACTGAAAAGTTGTGGGCACCATAGTGAGTCGCTGCCTGCAAAGACACAACT [GCACC] as the variant, how does the ligation selection enrichment read?
**A.** 0.153 ± 0.024

**Q.** Which ligation selection enrichment does the source give for GAGACCGCAACTGAAAAGTTGTGGCCATGATAGTGAGTCGCTGCCTGCAAAGACACAACT [CCATG] here?
**A.** 0.166 ± 0.043

**Q.** How did the ligation selection enrichment turn out when GAGACCGCAACTGAAAAGTTGTGGCCATAATAGTGAGTCGCTGCCTGCAAAGACACAACT [CCATA] was run?
**A.** 0.14 ± 0.025

**Q.** Which ligation selection enrichment does the source give for GAGACCGCAACTGAAAAGTTGTGGCCATCATAGTGAGTCGCTGCCTGCAAAGACACAACT [CCATC] here?
**A.** 0.121 ± 0.0018

**Q.** How did the ligation selection enrichment turn out when GAGACCGCAACTGAAAAGTTGTGGCCATTATAGTGAGTCGCTGCCTGCAAAGACACAACT [CCATT] was run?
**A.** 0.223 ± 0.041

**Q.** With GAGACCGCAACTGAAAAGTTGTGGTCCAGATAGTGAGTCGCTGCCTGCAAAGACACAACT [TCCAG] as the variant, how does the ligation selection enrichment read?
**A.** 0.128 ± 0.027

**Q.** Which ligation selection enrichment does the source give for GAGACCGCAACTGAAAAGTTGTGGTCCACATAGTGAGTCGCTGCCTGCAAAGACACAACT [TCCAC] here?
**A.** 0.118 ± 0.043

**Q.** For GAGACCGCAACTGAAAAGTTGTGGTCCATATAGTGAGTCGCTGCCTGCAAAGACACAACT [TCCAT], which ligation selection enrichment is on record?
**A.** 0.303 ± 0.096

**Q.** With GAGACCGCAACTGAAAAGTTGTGGTCCAAATAGTGAGTCGCTGCCTGCAAAGACACAACT [TCCAA] as the variant, how does the ligation selection enrichment read?
**A.** 0.0717 ± 0.015

**Q.** With GAGACCGCAACTGAAAAGTTGTGGACAGCATAGTGAGTCGCTGCCTGCAAAGACACAACT [ACAGC] as the variant, how does the ligation selection enrichment read?
**A.** 0.135 ± 0.011

**Q.** GAGACCGCAACTGAAAAGTTGTGGACAGAATAGTGAGTCGCTGCCTGCAAAGACACAACT [ACAGA] was tested. Which ligation selection enrichment did it give?
**A.** 0.307 ± 0.022

**Q.** GAGACCGCAACTGAAAAGTTGTGGACAGTATAGTGAGTCGCTGCCTGCAAAGACACAACT [ACAGT] was tested. Which ligation selection enrichment did it give?
**A.** 0.175 ± 0.012

**Q.** For GAGACCGCAACTGAAAAGTTGTGGACAGGATAGTGAGTCGCTGCCTGCAAAGACACAACT [ACAGG], which ligation selection enrichment is on record?
**A.** 0.217 ± 0.025

**Q.** How did the ligation selection enrichment turn out when GAGACCGCAACTGAAAAGTTGTGGCCCCAATAGTGAGTCGCTGCCTGCAAAGACACAACT [CCCCA] was run?
**A.** 0.14 ± 0.0052

**Q.** For GAGACCGCAACTGAAAAGTTGTGGCCCCCATAGTGAGTCGCTGCCTGCAAAGACACAACT [CCCCC], which ligation selection enrichment is on record?
**A.** 0.199 ± 0.004

**Q.** Which ligation selection enrichment does the source give for GAGACCGCAACTGAAAAGTTGTGGCCAGTATAGTGAGTCGCTGCCTGCAAAGACACAACT [CCAGT] here?
**A.** 0.107 ± 0.041

**Q.** For GAGACCGCAACTGAAAAGTTGTGGCCAGAATAGTGAGTCGCTGCCTGCAAAGACACAACT [CCAGA], which ligation selection enrichment is on record?
**A.** 0.297 ± 0.02

**Q.** Which ligation selection enrichment does the source give for GAGACCGCAACTGAAAAGTTGTGGCCAGGATAGTGAGTCGCTGCCTGCAAAGACACAACT [CCAGG] here?
**A.** 0.178 ± 0.009

**Q.** How did the ligation selection enrichment turn out when GAGACCGCAACTGAAAAGTTGTGGCCAGCATAGTGAGTCGCTGCCTGCAAAGACACAACT [CCAGC] was run?
**A.** 0.108 ± 0.022

**Q.** With GAGACCGCAACTGAAAAGTTGTGGGCCCAATAGTGAGTCGCTGCCTGCAAAGACACAACT [GCCCA] as the variant, how does the ligation selection enrichment read?
**A.** 0.209 ± 0.023

**Q.** Which ligation selection enrichment does the source give for GAGACCGCAACTGAAAAGTTGTGGGCCCGATAGTGAGTCGCTGCCTGCAAAGACACAACT [GCCCG] here?
**A.** 0.803 ± 0.034

**Q.** Which ligation selection enrichment does the source give for GAGACCGCAACTGAAAAGTTGTGGGCCCCATAGTGAGTCGCTGCCTGCAAAGACACAACT [GCCCC] here?
**A.** 0.227 ± 0.022

**Q.** How did the ligation selection enrichment turn out when GAGACCGCAACTGAAAAGTTGTGGGCAACATAGTGAGTCGCTGCCTGCAAAGACACAACT [GCAAC] was run?
**A.** 0.281 ± 0.015

**Q.** How did the ligation selection enrichment turn out when GAGACCGCAACTGAAAAGTTGTGGGCAATATAGTGAGTCGCTGCCTGCAAAGACACAACT [GCAAT] was run?
**A.** 4.77 ± 1.7

**Q.** Which ligation selection enrichment does the source give for GAGACCGCAACTGAAAAGTTGTGGGCAAAATAGTGAGTCGCTGCCTGCAAAGACACAACT [GCAAA] here?
**A.** 0.304 ± 0.025

**Q.** How did the ligation selection enrichment turn out when GAGACCGCAACTGAAAAGTTGTGGGCAAGATAGTGAGTCGCTGCCTGCAAAGACACAACT [GCAAG] was run?
**A.** 0.562 ± 0.043

**Q.** How did the ligation selection enrichment turn out when GAGACCGCAACTGAAAAGTTGTGGTCAGCATAGTGAGTCGCTGCCTGCAAAGACACAACT [TCAGC] was run?
**A.** 0.153 ± 0.017

**Q.** For GAGACCGCAACTGAAAAGTTGTGGTCAGGATAGTGAGTCGCTGCCTGCAAAGACACAACT [TCAGG], which ligation selection enrichment is on record?
**A.** 0.337 ± 0.062

**Q.** Which ligation selection enrichment does the source give for GAGACCGCAACTGAAAAGTTGTGGTCAGTATAGTGAGTCGCTGCCTGCAAAGACACAACT [TCAGT] here?
**A.** 0.161 ± 0.087
